Test results taken from patent US20190071487A1 (Memorial Sloan Kettering, published 2019).

Biological target: BTLA (B and T lymphocyte attenuator) on human lymphoma B cells (human, UniProt Q7Z6A9 31-289)
Experiment: cell-based or functional assay

correlation of percent pSyk inhibition by solHVEM with BTLA surface expression (ratio of MFI), ten primary human FL B cell samples: 0.697 r
B1: Leu39-Val202 soluble HVEM ectodomain polypeptide (receptor)
chain: LPSCKEDEYPVGSECCPKCSPGYRVKEACGELTGTVCEPCPPGTYIAHLNGLSKCLQCQMCDPAMGLRASRNCSRTENAVCGCSPGHFCIVQDGDHCAACRAYATSSPGQRVQKGGTESQDTLCQNCPPGTFSPNGTLEECQHQTKCSWLVTKAGAGTSSSHWV
